The record followed here is article doi:10.1101/2023.08.20.554025.

One may read the stoichiometry N as the number of molecules, sites or subunits per partner or assembly.

Assay in all cases: negative-stain EM
Assay [1] addresses GhV F I268F/Q287P ectodomain (Ghanaian virus (GhV)).
For assay [2], the target named is GhV F S196C/A215C ectodomain (Ghanaian virus (GhV)).
The target of assay [3] is GhV F I268F/Q287P/S196C/A215C ectodomain (Ghanaian virus (GhV)).

In turn, “GhV F I268F/Q287P ectodomain (domain or fragment)” showed a stoichiometry N in assay [1] of 3.
“GhV F S196C/A215C ectodomain (domain or fragment)” showed a stoichiometry N in assay [2] of 3.
Regarding “GhV F I268F/Q287P/S196C/A215C ectodomain (domain or fragment)”, the stoichiometry N in assay [3] is 3.
